Measured values reported in patent US20250122271A1, “ANTI-DKK1 ANTIBODY, PHARMACEUTICAL COMPOSITION THEREOF, AND USE THEREOF” (SHANGHAI JUNSHI BIOSCIENCES CO., LTD., priority 2022, published 2025).
Where two headings read alike, the source gives them in different places.

Assays:
[1] = target: T1, human DKK1 antigen (Sino Biological, 10170-H08H) (human, UniProt O94907 32-266); test: ELISA binding; FIG. 4B
T1 chain: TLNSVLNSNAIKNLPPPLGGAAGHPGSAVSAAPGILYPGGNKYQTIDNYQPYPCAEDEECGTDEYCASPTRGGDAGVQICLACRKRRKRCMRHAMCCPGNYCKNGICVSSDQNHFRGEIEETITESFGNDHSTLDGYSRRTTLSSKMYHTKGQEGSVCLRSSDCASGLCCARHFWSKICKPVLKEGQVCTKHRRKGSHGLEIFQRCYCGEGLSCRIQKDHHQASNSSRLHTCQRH

[2] = target: T1, human DKK1 antigen (Sino Biological, …); test: ELISA blocking of DKK1-LRP6
[3] = target: T1, human DKK1 antigen (Sino Biological, …); test: ELISA blocking of DKK1-LRP6
[4] = target: T1, human DKK1 antigen (Sino Biological, …); test: ELISA binding; given as IC50; FIG. 4A

B1: DKN-01 (antibody, V domains shown)
VH: EVQLVESGGGLVQPGGSLRLSCAASGFTFSSYTMSWVRQAPGKGLEWVATISGGGFGTYYPDSVKGRFTISRDNAKNSLYLQMNSLRAEDTAVYYCARPGYNNYYFDIWGQGTTVTVSS
VL: EIVLTQSPATLSLSPGERATLSCHASDSISNSLHWYQQKPGQAPRLLIYYARQSIQGIPARFSGSGSGTDFTLTISSLEPEDFAVYYCQQSESWPLHFGGGTKVEIKR
[1]
  EC50: 0.0154 µg/mL
[2]
  IC50: 0.324 µg/mL
[3]
  IC50: 1.24 µg/mL
[4]
  EC50: 0.0148 µg/mL
